Here are results for two substances from article PMC4390835.

Where two headings read alike, the source gives them in different places.

Assay [1] addresses Pil1, C-terminally tagged with mVenus or mCerulean (S. cerevisiae) (UniProt P53252). The assay is described as follows: FRET or BRET. (BRET reads energy transfer from a luciferase to a nearby fluorophore.)
For assay [2] the target is unchanged. The assay is described as follows: FRET or BRET. This is another data set of the same source.
Assay [3] has the same target. In words: FRET or BRET. This is another data set of the same source.
Assay [4] has the same target. The assay is described as follows: number and brightness.
Assay [5] has the same target. The assay is described as follows: FRET or BRET. The source holds these as a separate data set.
For assay [6] the target is unchanged. In words: FRET or BRET. The source holds these as a separate data set.
For assay [7] the target is unchanged. The assay is described as follows: FRET or BRET. This is another data set of the same source.
The target is the same in assay [8]. The assay is described as follows: FRET or BRET. The source holds these as a separate data set.
Assay [9] has as its target Lsp1, C-terminally tagged with mVenus or mCerulean (S. cerevisiae) (UniProt Q12230). In words: FRET or BRET.
Assay [10] has the same target. In words: FRET or BRET. The source holds these as a separate data set.
Assay [11] has the same target. In words: FRET or BRET. The source holds these as a separate data set.

Regarding “Pil1, C-terminally tagged with mVenus or mCerulean (from UniProt P53252 1-339) (natural protein)”, the FRET efficiency is 18% in assay [1]; 10% in [2]; 28% in assay [3]; 5% in assay [5]; 20% in assay [6]; 10% in [7]. Moreover, in [8], the FRET efficiency amounted to 15%. For the same substance, the percent of Pil1-mVenus that corresponds to oligomers in [4] came to 8%.
Take “Lsp1, C-terminally tagged with mVenus or mCerulean (from UniProt Q12230 1-341) (natural protein)”: the FRET efficiency came to 30% in assay [9], 20% in assay [10] and 20% in assay [11].
